Drawing on patent US11267868 (dated 2022), this text covers Kd for 9 molecules.

Common to all, as to assay: SPR
A general note: SPR reads the build-up and loss of mass on a sensor chip optically.

The target in one assay is T1, FcgRIIaH (human, UniProt P12318).
T1 chain: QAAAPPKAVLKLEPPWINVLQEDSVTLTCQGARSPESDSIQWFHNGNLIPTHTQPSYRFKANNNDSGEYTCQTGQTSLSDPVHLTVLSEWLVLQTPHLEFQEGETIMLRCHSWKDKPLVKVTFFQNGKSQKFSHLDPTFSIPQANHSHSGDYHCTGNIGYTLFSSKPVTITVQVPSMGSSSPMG

Another assay has as its target T2, FcgRIIb (human, UniProt P31994).
T2 chain: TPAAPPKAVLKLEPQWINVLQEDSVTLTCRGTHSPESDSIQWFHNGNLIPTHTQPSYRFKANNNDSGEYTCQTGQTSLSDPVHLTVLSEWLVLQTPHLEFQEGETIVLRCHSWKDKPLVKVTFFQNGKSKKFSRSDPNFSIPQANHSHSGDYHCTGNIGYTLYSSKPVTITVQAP

The target in a further assay is T3, FcgRIa (human, UniProt P12314).
T3 chain: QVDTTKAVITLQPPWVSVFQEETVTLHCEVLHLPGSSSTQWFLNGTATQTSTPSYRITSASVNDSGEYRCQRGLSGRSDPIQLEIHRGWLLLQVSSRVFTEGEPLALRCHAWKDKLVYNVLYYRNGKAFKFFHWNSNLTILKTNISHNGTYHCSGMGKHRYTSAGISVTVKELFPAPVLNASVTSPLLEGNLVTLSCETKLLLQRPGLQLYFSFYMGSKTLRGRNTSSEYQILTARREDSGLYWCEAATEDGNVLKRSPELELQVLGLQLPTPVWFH

In another assay the target is FcgRIIIaV (human, UniProt P08637).
Sequence of FcgRIIIaV (P08637 17-208 F176V): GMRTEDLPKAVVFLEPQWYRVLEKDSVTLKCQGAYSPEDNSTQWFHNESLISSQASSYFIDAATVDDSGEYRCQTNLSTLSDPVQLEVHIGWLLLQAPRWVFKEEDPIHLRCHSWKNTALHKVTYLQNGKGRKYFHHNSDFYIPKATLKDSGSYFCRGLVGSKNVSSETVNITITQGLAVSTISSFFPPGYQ
A further assay has as its target T4, FcgRIIaR (human, UniProt P12318).
T4 chain: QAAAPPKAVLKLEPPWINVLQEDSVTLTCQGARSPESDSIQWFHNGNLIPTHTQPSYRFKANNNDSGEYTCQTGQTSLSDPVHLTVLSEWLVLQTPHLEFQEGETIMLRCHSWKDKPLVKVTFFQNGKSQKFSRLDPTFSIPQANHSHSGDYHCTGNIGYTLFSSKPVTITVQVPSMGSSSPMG

B1: IL6R-P660/IL6R-L (antibody)
chain 1: QVQLQESGPGLVKPSETLSLTCAVSGHSISHDHAWSWVRQPPGEGLEWIGFISYSGITNYNPSLQGRVTISRDNSKNTLYLQMNSLRAEDTAVYYCARSLARTTAMDYWGEGTLVTVSSASTKGPSVFPLAPSSKSTSGGTAALGCLVKDYFPEPVTVSWNSGALTSGVHTFPAVLQSSGLYSLSSVVTVPSSSLGTQTYICNVNHKPSNTKVDKKVEPKSCDKTHTCPPCPAPELLGGDSVFLFPPKPKDTLMISRTPEVTCVVVDVSHEDPEVKFNWYVDGVEVHNAKTKPREEQYNATYRVVSVLTVLHQDWLNGKEYKCKVNNKALPAPIEKTISKAKGQPREPQVYTLPPSRDELTKNQVSLTCLVKGFYPSDIAVEWESNGQPENNYKTTPPVLDSDGSFFLYSKLTVDKSRWQQGNVFSCSVMHEALHNHYTQKSLSLSP
chain 2: not shown
On to B1, for which the Kd (usually the free concentration of one partner at which half of the binding sites on the other are occupied at equilibrium, for simple one-to-one binding) in the assay with FcgRIIaH was 110 µM; with FcgRIIb, 5.3 µM; in the assay with FcgRIa, 0.0074 µM; in the assay with FcgRIIIaV, 30 µM; in the assay with FcgRIIaR it was 50 µM.

B2: IL6R-P732/IL6R-L (antibody)
chain 1: QVQLQESGPGLVKPSETLSLTCAVSGHSISHDHAWSWVRQPPGEGLEWIGFISYSGITNYNPSLQGRVTISRDNSKNTLYLQMNSLRAEDTAVYYCARSLARTTAMDYWGEGTLVTVSSASTKGPSVFPLAPSSKSTSGGTAALGCLVKDYFPEPVTVSWNSGALTSGVHTFPAVLQSSGLYSLSSVVTVPSSSLGTQTYICNVNHKPSNTKVDKKVEPKSCDKTHTCPPCPAPELFGGDSVMLFPPKPKDTLMISRTPEVTCVVVDVSPEDPEVKFNWYVDGVEVHNAKTKPREEQENSTYRVVSVLTVLHQDWLNGKEYKCKVHNKALPAPIEKTISKAKGQPREPQVYTLPPSRDELTKNQVSLTCLVKGFYPSDIAVEWESNGQPENNYKTTPPVLDSDGSFFLYSKLTVDKSRWQQGNVFSCSVMHEALHNHYTQKSLSLSP
chain 2: not shown
As to B2, the Kd was 100 µM in the assay with FcgRIIaH; 2.9 µM with FcgRIIb; 0.7 µM with FcgRIa; 76 µM with FcgRIIIaV; 72 µM in the assay with FcgRIIaR.

B3: IL6R-P733/IL6R-L (antibody)
chain 1: QVQLQESGPGLVKPSETLSLTCAVSGHSISHDHAWSWVRQPPGEGLEWIGFISYSGITNYNPSLQGRVTISRDNSKNTLYLQMNSLRAEDTAVYYCARSLARTTAMDYWGEGTLVTVSSASTKGPSVFPLAPSSKSTSGGTAALGCLVKDYFPEPVTVSWNSGALTSGVHTFPAVLQSSGLYSLSSVVTVPSSSLGTQTYICNVNHKPSNTKVDKKVEPKSCDKTHTCPPCPAPELFGQDSVMLFPPKPKDTLMISRTPEVTCVVVDVSPEDPEVKFNWYVDGVEVHNAKTKPREEQENSTYRVVSVLTVLHQDWLNGKEYKCKVHNKALPAPIEKTISKAKGQPREPQVYTLPPSRDELTKNQVSLTCLVKGFYPSDIAVEWESNGQPENNYKTTPPVLDSDGSFFLYSKLTVDKSRWQQGNVFSCSVMHEALHNHYTQKSLSLSP
chain 2: not shown
As for B3, the Kd with FcgRIIaH amounted to 180 µM; with FcgRIIb, 4.7 µM; in the assay with FcgRIa, 2.5 µM; with FcgRIIIaV, 77 µM; in the assay with FcgRIIaR, 130 µM.

B4: IL6R-P591/IL6R-L (antibody)
chain 1: QVQLQESGPGLVKPSETLSLTCAVSGHSISHDHAWSWVRQPPGEGLEWIGFISYSGITNYNPSLQGRVTISRDNSKNTLYLQMNSLRAEDTAVYYCARSLARTTAMDYWGEGTLVTVSSASTKGPSVFPLAPSSKSTSGGTAALGCLVKDYFPEPVTVSWNSGALTSGVHTFPAVLQSSGLYSLSSVVTVPSSSLGTQTYICNVNHKPSNTKVDKKVEPKSCDKTHTCPPCPAPELLGGDSVMLFPPKPKDTLMISRTPEVTCVVVDVSHEDPEVKFNWYVDGVEVHNAKTKPREEQENSTYRVVSVLTVLHQDWLNGKEYKCKVSNKALPAPIEKTISKAKGQPREPQVYTLPPSRDELTKNQVSLTCLVKGFYPSDIAVEWESNGQPENNYKTTPPVLDSDGSFFLYSKLTVDKSRWQQGNVFSCSVMHEALHNHYTQKSLSLSP
chain 2: not shown
Consider B4, for which the Kd in the assay with FcgRIIaH is 86 µM; in the assay with FcgRIIb, 3.1 µM; with FcgRIa, 0.024 µM; in the assay with FcgRIIIaV, 44 µM; in the assay with FcgRIIaR it was 37 µM.

B5: IL6R-P691/IL6R-L (antibody)
chain 1: QVQLQESGPGLVKPSETLSLTCAVSGHSISHDHAWSWVRQPPGEGLEWIGFISYSGITNYNPSLQGRVTISRDNSKNTLYLQMNSLRAEDTAVYYCARSLARTTAMDYWGEGTLVTVSSASTKGPSVFPLAPSSKSTSGGTAALGCLVKDYFPEPVTVSWNSGALTSGVHTFPAVLQSSGLYSLSSVVTVPSSSLGTQTYICNVNHKPSNTKVDKKVEPKSCDKTHTCPPCPAPELFGQDSVMLFPPKPKDTLMISRTPEVTCVVVDVSHEDPEVKFNWYVDGVEVHNAKTKPREEQENSTYRVVSVLTVLHQDWLNGKEYKCKVSNKALPAPIEKTISKAKGQPREPQVYTLPPSRDELTKNQVSLTCLVKGFYPSDIAVEWESNGQPENNYKTTPPVLDSDGSFFLYSKLTVDKSRWQQGNVFSCSVMHEALHNHYTQKSLSLSP
chain 2: not shown
Regarding B5, the Kd with FcgRIIaH amounted to 130 µM; in the assay with FcgRIIb, 4.3 µM; in the assay with FcgRIa, 0.76 µM; in the assay with FcgRIIIaV, 48 µM; in the assay with FcgRIIaR, 72 µM.

B6: IL6R-P734/IL6R-L (antibody)
chain 1: QVQLQESGPGLVKPSETLSLTCAVSGHSISHDHAWSWVRQPPGEGLEWIGFISYSGITNYNPSLQGRVTISRDNSKNTLYLQMNSLRAEDTAVYYCARSLARTTAMDYWGEGTLVTVSSASTKGPSVFPLAPSSKSTSGGTAALGCLVKDYFPEPVTVSWNSGALTSGVHTFPAVLQSSGLYSLSSVVTVPSSSLGTQTYICNVNHKPSNTKVDKKVEPKSCDKTHTCPPCPAPELFGQDSVMLFPPKPKDTLMISRTPEVTCVVVDVSHEDPEVKFNWYVDGVEVHNAKTKPREEQENSTYRVVSVLTVLHQDWLNGKEYKCKVHNKALPHPIEKTISKAKGQPREPQVYTLPPSRDELTKNQVSLTCLVKGFYPSDIAVEWESNGQPENNYKTTPPVLDSDGSFFLYSKLTVDKSRWQQGNVFSCSVMHEALHNHYTQKSLSLSP
chain 2: not shown
B6: the Kd with FcgRIIaH is 84 µM; with FcgRIIb it was 2.5 µM; in the assay with FcgRIa, 0.22 µM; with FcgRIIIaV, 100 µM; with FcgRIIaR, 68 µM.

B7: IL6R-P690/IL6R-L (antibody)
chain 1: QVQLQESGPGLVKPSETLSLTCAVSGHSISHDHAWSWVRQPPGEGLEWIGFISYSGITNYNPSLQGRVTISRDNSKNTLYLQMNSLRAEDTAVYYCARSLARTTAMDYWGEGTLVTVSSASTKGPSVFPLAPSSKSTSGGTAALGCLVKDYFPEPVTVSWNSGALTSGVHTFPAVLQSSGLYSLSSVVTVPSSSLGTQTYICNVNHKPSNTKVDKKVEPKSCDKTHTCPPCPAPELLGQDSVMLFPPKPKDTLMISRTPEVTCVVVDVSHEDPEVKFNWYVDGVEVHNAKTKPREEQENSTYRVVSVLTVLHQDWLNGKEYKCKVSNKALPHPIEKTISKAKGQPREPQVYTLPPSRDELTKNQVSLTCLVKGFYPSDIAVEWESNGQPENNYKTTPPVLDSDGSFFLYSKLTVDKSRWQQGNVFSCSVMHEALHNHYTQKSLSLSP
chain 2: not shown
Consider B7, for which the Kd with FcgRIIaH amounted to 140 µM; with FcgRIIb it was 4 µM; with FcgRIa it was 0.31 µM; with FcgRIIIaV it was 63 µM; with FcgRIIaR, 74 µM.

B8: IL6R-P727/IL6R-L (antibody)
chain 1: QVQLQESGPGLVKPSETLSLTCAVSGHSISHDHAWSWVRQPPGEGLEWIGFISYSGITNYNPSLQGRVTISRDNSKNTLYLQMNSLRAEDTAVYYCARSLARTTAMDYWGEGTLVTVSSASTKGPSVFPLAPSSKSTSGGTAALGCLVKDYFPEPVTVSWNSGALTSGVHTFPAVLQSSGLYSLSSVVTVPSSSLGTQTYICNVNHKPSNTKVDKKVEPKSCDKTHTCPPCPAPELLGQDSVMLFPPKPKDTLMISRTPEVTCVVVDVSPEDPEVKFNWYVDGVEVHNAKTKPREEQENSTYRVVSVLTVLHQDWLNGKEYKCKVSNKALPHPIEKTISKAKGQPREPQVYTLPPSRDELTKNQVSLTCLVKGFYPSDIAVEWESNGQPENNYKTTPPVLDSDGSFFLYSKLTVDKSRWQQGNVFSCSVMHEALHNHYTQKSLSLSP
chain 2: not shown
For B8, the equilibrium dissociation constant (Kd) was 150 µM with FcgRIIaH; 4.8 µM in the assay with FcgRIIb; 0.23 µM with FcgRIa; 66 µM with FcgRIIIaV; 100 µM with FcgRIIaR.

B9: IL6R-P653/IL6R-L (antibody)
chain 1: QVQLQESGPGLVKPSETLSLTCAVSGHSISHDHAWSWVRQPPGEGLEWIGFISYSGITNYNPSLQGRVTISRDNSKNTLYLQMNSLRAEDTAVYYCARSLARTTAMDYWGEGTLVTVSSASTKGPSVFPLAPSSKSTSGGTAALGCLVKDYFPEPVTVSWNSGALTSGVHTFPAVLQSSGLYSLSSVVTVPSSSLGTQTYICNVNHKPSNTKVDKKVEPKSCDKTHTCPPCPAPELLGGDSVMLFPPKPKDTLMISRTPEVTCVVVDVSPEDPEVKFNWYVDGVEVHNAKTKPREEQENSTYRVVSVLTVLHQDWLNGKEYKCKVSNKALPAPIEKTISKAKGQPREPQVYTLPPSRDELTKNQVSLTCLVKGFYPSDIAVEWESNGQPENNYKTTPPVLDSDGSFFLYSKLTVDKSRWQQGNVFSCSVMHEALHNHYTQKSLSLSP
chain 2: not shown
Turning to B9, the Kd with FcgRIIaH is 110 µM; with FcgRIIb, 3.5 µM; with FcgRIa, 0.018 µM; with FcgRIIIaV, 50 µM; with FcgRIIaR, 51 µM.
